This is an account of results in patent US20160061839A1 (LABORATORY CORPORATION OF AMERICA, published 2016).

One assay addresses T1, Her-2 (human, UniProt P04626 23-1255).
T1 construct: whole, on cells; also called ErbB2; c-Erb-B2
The assay can be described thus: IHC on FFPE SKOV3 cells (high HER2, low HER3).

A further assay concerns the target T2, Her-3 (human, UniProt P21860 20-1342).
T2 construct: whole, on cells; In the IHC and VERATAG assays the protein stood in formalin-fixed, paraffin-embedded cells or tumor sections; also called ErbB3; c-erb-B3
The assay can be described thus: IHC on FFPE 293H3-clone 1 cells over-expressing HER3.

T2 sequence (P21860 20-1342): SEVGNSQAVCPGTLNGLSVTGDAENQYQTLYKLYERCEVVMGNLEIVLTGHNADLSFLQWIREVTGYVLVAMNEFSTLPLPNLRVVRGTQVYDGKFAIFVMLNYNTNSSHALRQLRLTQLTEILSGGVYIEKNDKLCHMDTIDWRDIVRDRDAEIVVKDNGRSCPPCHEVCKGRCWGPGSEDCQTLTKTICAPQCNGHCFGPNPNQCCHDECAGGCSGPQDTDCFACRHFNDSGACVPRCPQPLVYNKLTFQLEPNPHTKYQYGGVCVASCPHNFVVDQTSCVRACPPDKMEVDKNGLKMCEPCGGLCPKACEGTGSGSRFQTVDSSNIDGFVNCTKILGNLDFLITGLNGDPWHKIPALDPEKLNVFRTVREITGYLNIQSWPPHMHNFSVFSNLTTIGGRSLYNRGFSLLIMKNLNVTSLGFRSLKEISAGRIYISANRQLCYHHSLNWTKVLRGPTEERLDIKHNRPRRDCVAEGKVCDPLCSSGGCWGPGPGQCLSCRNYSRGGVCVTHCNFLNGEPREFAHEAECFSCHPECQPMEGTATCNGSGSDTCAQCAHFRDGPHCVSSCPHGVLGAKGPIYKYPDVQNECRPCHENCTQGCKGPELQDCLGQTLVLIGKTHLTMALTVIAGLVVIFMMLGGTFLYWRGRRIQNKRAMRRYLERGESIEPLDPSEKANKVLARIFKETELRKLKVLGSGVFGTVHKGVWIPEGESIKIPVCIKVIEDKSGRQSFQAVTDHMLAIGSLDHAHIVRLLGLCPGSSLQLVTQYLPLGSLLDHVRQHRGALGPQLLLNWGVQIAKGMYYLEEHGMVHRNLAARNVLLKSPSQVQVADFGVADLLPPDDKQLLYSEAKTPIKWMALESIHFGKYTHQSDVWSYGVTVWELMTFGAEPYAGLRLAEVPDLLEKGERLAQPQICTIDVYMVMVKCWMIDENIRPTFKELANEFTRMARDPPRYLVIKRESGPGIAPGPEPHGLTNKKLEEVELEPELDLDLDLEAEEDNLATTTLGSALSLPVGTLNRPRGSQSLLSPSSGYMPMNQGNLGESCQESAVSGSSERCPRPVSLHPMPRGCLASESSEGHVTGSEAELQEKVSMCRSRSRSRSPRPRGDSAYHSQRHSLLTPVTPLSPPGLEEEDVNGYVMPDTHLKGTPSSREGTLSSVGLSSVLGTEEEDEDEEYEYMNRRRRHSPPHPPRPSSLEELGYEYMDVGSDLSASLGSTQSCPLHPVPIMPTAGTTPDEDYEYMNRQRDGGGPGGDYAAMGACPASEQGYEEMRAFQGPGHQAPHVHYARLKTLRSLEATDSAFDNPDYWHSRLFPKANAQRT

B1: Her3.B9A11.H1 (antibody, V domains shown)
VH: EVQLQQPGTVLARPGASVRMSCKASGYTFTSYWMHWVKQRPGQGLEWIGAIYPGNSDTRDNQKFKGKAELTAVTSASTAYMELSSLTNEDSAVYYCTSYYFDGAGYFDFWGQGTTLTVSS
VL: DIVMSQSPSSLAVSAGEKVTLSCKSSQSLLNSRTRKNYLAWYQQKPGQSPKLLIYWASTRESGVPDRFTGSGSGTDFTLTVSSVQAEDLAVYYCKQSYNLWTFGGGTKLEIK
notes: Mouse hybridoma monoclonal antibody; The matched isotype control is IgG1; also called B9A11-biotin
As to B1, the binding result with Her-2 is given as “no binding”; in the assay with Her-3 it was “binds”.
